Assay results from paper PMC10512374, “Characterization and Phylogenetic Analysis of a Novel GH43 β-Xylosidase From Neocallimastix californiae” (Frontiers in Fungal Biology, 2021).

T1: Xyl43Nc (Neocallimastix californiae, UniProt A0A1Y2A0L6)
T1 construct: E. coli BL21 pLysS (DE3); HisTrap and Sephacryl S-200
T1 sequence (A0A1Y2A0L6 1-326): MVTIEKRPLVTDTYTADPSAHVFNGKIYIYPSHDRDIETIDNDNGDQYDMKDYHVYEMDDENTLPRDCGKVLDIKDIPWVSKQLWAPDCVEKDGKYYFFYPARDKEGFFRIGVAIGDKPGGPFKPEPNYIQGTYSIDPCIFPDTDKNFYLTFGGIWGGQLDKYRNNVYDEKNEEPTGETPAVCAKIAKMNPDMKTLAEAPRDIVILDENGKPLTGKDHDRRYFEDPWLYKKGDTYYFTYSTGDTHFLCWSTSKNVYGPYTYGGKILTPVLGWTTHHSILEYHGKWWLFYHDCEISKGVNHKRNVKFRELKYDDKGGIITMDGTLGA


Columns and labels:
Xyl43Nc = target: T1, Xyl43Nc; experiment: product inhibition of 4-nitrophenyl xyloside hydrolysis, […] nm, curve fit; type: biochemical; conditions: competitive, xylose 0-10 mM, substrate 4-nitrophenol-xylopyranoside 0.25-7.5 mM
purified protein = substrate: O=[N+]([O-])c1ccc(O[C@@H]2OC[C@@H](O)[C@H](O)[C@H]2O)cc1; experiment: purified protein; type: biochemical, Neocallimastix californiae; conditions: pH 6, 32 °C, no added metal

Molecule | Ki (Xyl43Nc) | Km (purified protein) | Vmax (purified protein) | kcat (purified protein)
OC1OC[C@@H](O)[C@H](O)[C@H]1O (stereo partly shown) [xylose] | 6.11 mM | – | – | –
Xyl43Nc (Neocallimastix californiae) (protein, E. coli BL21 pLysS (DE3); HisTrap and Sephacryl S-200) MVTIEKRPLVTDTYTADPSAHVFNGKIYIYPSHDRDIETIDNDNGDQYDMKDYHVYEMDDENTLPRDCGKVLDIKDIPWVSKQLWAPDCVEKDGKYYFFYPARDKEGFFRIGVAIGDKPGGPFKPEPNYIQGTYSIDPCIFPDTDKNFYLTFGGIWGGQLDKYRNNVYDEKNEEPTGETPAVCAKIAKMNPDMKTLAEAPRDIVILDENGKPLTGKDHDRRYFEDPWLYKKGDTYYFTYSTGDTHFLCWSTSKNVYGPYTYGGKILTPVLGWTTHHSILEYHGKWWLFYHDCEISKGVNHKRNVKFRELKYDDKGGIITMDGTLGA | – | 720 µM | 47 µmol/min/mg | 29.3 s⁻¹
